Values belong to the molecule of their own block, whether it stands above or below them.
Tests used:
IL-18 binding protein = IL-18 binding protein (UniProt O95998); assay: Biacore T200 SPR, CM5 chip, IL-18BP as immobilized ligand, hIL-18 titrated, 25 C
IL-18 receptor = molecular target: T1, IL-18 receptor (UniProt Q13478 19-541; O95256 20-599, limits assumed); assay: cell-based or functional assay
T1 sequence (looked up) 1: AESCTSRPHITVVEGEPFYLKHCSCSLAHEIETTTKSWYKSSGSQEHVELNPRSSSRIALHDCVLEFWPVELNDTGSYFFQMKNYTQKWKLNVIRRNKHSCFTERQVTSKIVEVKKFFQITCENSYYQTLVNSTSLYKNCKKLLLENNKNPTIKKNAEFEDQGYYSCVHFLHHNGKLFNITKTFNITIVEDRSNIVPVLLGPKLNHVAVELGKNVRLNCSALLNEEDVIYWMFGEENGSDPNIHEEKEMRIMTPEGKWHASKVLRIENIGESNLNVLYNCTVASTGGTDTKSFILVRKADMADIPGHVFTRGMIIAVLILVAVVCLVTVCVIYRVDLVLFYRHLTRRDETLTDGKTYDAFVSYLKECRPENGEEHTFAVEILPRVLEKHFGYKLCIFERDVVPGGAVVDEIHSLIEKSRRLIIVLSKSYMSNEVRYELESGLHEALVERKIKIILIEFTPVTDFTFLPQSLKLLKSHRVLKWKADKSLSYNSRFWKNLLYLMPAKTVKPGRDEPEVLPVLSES
T1 sequence (looked up) 2: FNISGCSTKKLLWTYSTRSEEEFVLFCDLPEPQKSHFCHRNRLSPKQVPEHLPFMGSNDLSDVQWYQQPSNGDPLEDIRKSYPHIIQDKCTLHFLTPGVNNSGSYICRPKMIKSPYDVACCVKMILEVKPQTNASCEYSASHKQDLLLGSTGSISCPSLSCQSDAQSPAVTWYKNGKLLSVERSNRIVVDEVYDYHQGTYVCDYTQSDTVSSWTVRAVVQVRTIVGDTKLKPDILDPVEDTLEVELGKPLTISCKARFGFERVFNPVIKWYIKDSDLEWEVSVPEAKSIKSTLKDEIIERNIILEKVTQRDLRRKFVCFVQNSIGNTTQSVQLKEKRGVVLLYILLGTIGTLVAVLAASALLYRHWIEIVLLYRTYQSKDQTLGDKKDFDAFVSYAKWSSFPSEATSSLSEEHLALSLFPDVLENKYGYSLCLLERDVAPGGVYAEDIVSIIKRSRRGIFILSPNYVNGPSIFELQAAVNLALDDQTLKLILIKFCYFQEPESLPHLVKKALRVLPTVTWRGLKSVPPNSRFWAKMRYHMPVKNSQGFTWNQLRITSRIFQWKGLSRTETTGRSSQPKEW

Kd (IL-18 binding protein): 56 pM
Molecule: Recombinant hIL-18 (NIBSC wildtype) (from UniProt Q14116 37-193) (ligand)

EC50 (read off the curve), HEK-Blue IL-18 reporter, OD at 640 nM (IL-18 receptor): ~0.03 ng/mL
B1: hIL-18 Variant A (ligand)
chain: WFGKLESKLSVIRNLNDQVLFIDQGNRPLFEDMTDSDSRDNAPRTIFIISYYKDSQPRGWAVTISVKSEKISTLSSENKIISFKEMNPPDNIKDTKSDIIFFQRSVPGHYNKMQFESSSYEGYFLASEKERDLFKLILKKEDELGDRSIMFTVQNED
